Measured values from patent US20260116987A1 (Gilead, published 2026).

How the values were obtained:
[1] = target: T1, CCR8-NT.MBP (CCR8 N-terminus peptide aa 1-35 fused with maltose binding protein); assay: ForteBio Octet, antibody captured on AHC biosensors, CCR8-NT.MBP as analyte
[2] = target: T2, Human CCR8 (C-C chemokine receptor type 8) expressed on CHO-S cells (human, UniProt P51685 1-355); assay: flow cytometry on CHO cells expressing CCR8, EC50 column
T2 construct: also called huCCR8; human CCR8-expressing CHO-S cells
Description: (§1) CCR8 binding was determined using flow cytometry according to the same methods used in Example 4, Briefly, antibodies were screened for specific binding to human CCR8 by flow cytometry using human CCR8-overexpressing and parental CHO—S cell line. Antibodies specifically binding to human CCR8 were also tested for binding to CCR4 by flow cytometry.

[3] = target: T1, CCR8-NT.MBP (CCR8 N-terminus peptide aa …); assay: ForteBio Octet, antibody captured on AHC biosensors
[4] = target: T3, Human CCR8 on human CCR8-overexpression lipoparticles (human, UniProt P51685 1-355); assay: sequential format ELISA on human CCR8-overexpression lipoparticles; competitor 6-B09
[5] = target: T2, Human CCR8 (C-C chemokine receptor type …); assay: cell-based or functional assay
[6] = target: T3, Human CCR8 on human CCR8-overexpression …; assay: sequential format ELISA on human CCR8-overexpression lipoparticles; competitor 19-O07
[7] = target: T2, Human CCR8 (C-C chemokine receptor type …); assay: flow cytometry epitope binning, tandem format, human CCR8-overexpressing cells; competitor 19-O07
Description: (§2) A subset of antibodies against human CCR8 were epitope binned using flow cytometry method in tandem format. Briefly, one set of antibodies was biotinylated. Human CCR8-overexpressing cells were incubated at 4° C., with the non-biotinylated antibodies at 10 μg/mL for 1 hour, then without washing the biotinylated antibodies were added at 10 μg/mL. After a further 1-hour incubation, cells were washed three times and then stained with streptavidin-phycoerythrin (PE-strep) secondary antibody for 30 minutes. Binding competition was determined by detecting PE by flow cytometry. The response values were normalized as the % of the maximum binding of the individual antibody.

[8] = target: T2, Human CCR8 (C-C chemokine receptor type …); assay: flow cytometry epitope binning, tandem format, human CCR8-overexpressing cells; competitor 6-B09
Description: as §2

[9] = target: T2, Human CCR8 (C-C chemokine receptor type …); assay: flow cytometry epitope binning, tandem format, human CCR8-overexpressing cells; competitor 1-K16
Description: as §2

[10] = target: T2, Human CCR8 (C-C chemokine receptor type …); assay: KinExA, on-cell, human CCR8-expressing CHO-S cells; calculated from Kd and kon
Description: (§3) Samples were gently rocked for 2.5 hours at 37° C. to achieve equilibrium.
(§4) To determine the rate of association (kₒₙ), the same immobilized biotinylated goat anti-human IgG-PMMA column was used as the capture reagent for kinetic experiments.
(§5) Data analysis was performed using KinExA Pro software at Sapidyne Instruments Inc to generate Kd and kₒₙ, The rate of dissociation (koff) was calculated based on the equation below.

[11] = target: T3, Human CCR8 on human CCR8-overexpression …; assay: sequential format ELISA on human CCR8-overexpression lipoparticles; competitor 7-B16
[12] = target: T2, Human CCR8 (C-C chemokine receptor type …); assay: KinExA, on-cell, human CCR8-expressing CHO-S cells
Description: as §3, §4, §5

[13] = target: T3, Human CCR8 on human CCR8-overexpression …; assay: sequential format ELISA on human CCR8-overexpression lipoparticles; competitor 1-K16
[14] = target: T4, Human CCR4 expressed on CHO-S cells (human, UniProt P51679 1-360); assay: flow cytometry
T4 construct: whole, on cells; also called CCR4-expressing CHO-S cells
T4 sequence (looked up): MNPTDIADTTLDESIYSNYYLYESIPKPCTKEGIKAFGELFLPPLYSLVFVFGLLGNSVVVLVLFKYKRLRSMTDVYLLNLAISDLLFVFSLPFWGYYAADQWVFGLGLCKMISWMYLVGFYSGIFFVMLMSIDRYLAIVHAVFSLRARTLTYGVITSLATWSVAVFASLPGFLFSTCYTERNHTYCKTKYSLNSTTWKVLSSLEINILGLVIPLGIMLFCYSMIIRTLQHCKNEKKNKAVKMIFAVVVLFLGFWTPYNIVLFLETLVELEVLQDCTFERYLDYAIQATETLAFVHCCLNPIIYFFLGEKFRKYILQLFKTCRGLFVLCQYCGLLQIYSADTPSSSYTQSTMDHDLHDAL

[15] = target: T2, Human CCR8 (C-C chemokine receptor type …); assay: cell-based or functional assay; remark: listed apart in the source
[16] = target: T2, Human CCR8 (C-C chemokine receptor type …); assay: flow cytometry epitope binning, tandem format, human CCR8-overexpressing cells; competitor 1-K17
Description: as §2

[17] = target: T2, Human CCR8 (C-C chemokine receptor type …); assay: flow cytometry epitope binning, tandem format, human CCR8-overexpressing cells; competitor 7-B16
Description: as §2

[18] = target: T3, Human CCR8 on human CCR8-overexpression …; assay: sequential format ELISA on human CCR8-overexpression lipoparticles; competitor 1-K17
[19] = target: T4, Human CCR4 expressed on CHO-S cells; assay: flow cytometry (PE-A), human CCR4-expressing CHO-S cells against parental CHO-S cells; antibody concentration not given
[20] = target: T2, Human CCR8 (C-C chemokine receptor type …); assay: flow cytometry (PE-A), human CCR8-expressing CHO-S cells against parental CHO-S cells; antibody concentration not given
[21] = target: T2, Human CCR8 (C-C chemokine receptor type …); assay: flow cytometry, human CCR8-overexpressing against parental CHO-S cells
Description: The first category of variant (single substitution mutation in the CDR H3) included variants in which each amino acid residue of the heavy chain CDR 3 (i.e., , CDR H3) was iteratively substituted with an alanine residue.
as §1

[22] = target: T2, Human CCR8 (C-C chemokine receptor type …); assay: cell-based or functional assay; remark: listed apart in the source

T2 sequence (P51685 whole entry): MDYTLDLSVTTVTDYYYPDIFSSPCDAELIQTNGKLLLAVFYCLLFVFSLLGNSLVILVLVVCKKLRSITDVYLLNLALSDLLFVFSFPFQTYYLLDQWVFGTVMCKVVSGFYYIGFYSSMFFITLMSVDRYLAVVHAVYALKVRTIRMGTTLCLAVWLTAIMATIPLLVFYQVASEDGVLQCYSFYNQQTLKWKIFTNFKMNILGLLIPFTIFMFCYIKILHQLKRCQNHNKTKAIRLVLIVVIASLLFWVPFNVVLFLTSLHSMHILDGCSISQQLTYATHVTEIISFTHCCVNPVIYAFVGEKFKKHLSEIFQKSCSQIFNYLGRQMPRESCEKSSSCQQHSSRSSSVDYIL
T3 sequence (P51685 whole entry): as above

Row | Binder | Octet Response (nm) [1] [nm] | binding result [2] | binding result [3] | ELISA epitope binning signal [4] | EC50 of ADCC function (Promega ADCC reporter bioassay) [5] [µg/mL] | ELISA epitope binning signal [6] | % of the maximum binding [7] [%] | % of the maximum binding [8] [%] | % of the maximum binding [9] [%] | koff [10] [s⁻¹] | ELISA epitope binning signal [11] | Kd [12] [nM] | kon [12] [M⁻¹ s⁻¹] | ELISA epitope binning signal [13] | binding result [14] | IC50, antagonist activity in DiscoverX PathHunter beta-arrestin assay with 13.7 nM human CCL1 [15] [µg/mL] | % of the maximum binding [16] [%] | % of the maximum binding [17] [%] | ELISA epitope binning signal [18] | also measured
1 | 7B16-H3.001 (CDR H3 swapped mutant of 7-B16) (antibody, V domains shown, also called CDR swapped variant H3) VH: EVQLVESGGGLVQPKGSLKLSCAASGFTFNTYAMNWVRQAPGKGLEWVARIRSKSNNYATYYADSVKDRFTISRDDSQSMLYLQMNNLKTEDTAMYYCTRYYYYYGMDVWGAGTTVTVSS VL: DIVMTQAEPSVPVTPGESISISCRSSKSLLHSNGNTYLYWFLQRPGQSPQLLIYRMSNLASGVPDRFSGSGSGTAFTLRISRVEAEDVGVYYCMQHLEYPFTFGGGTKLEIKR | 0.0093 | no binding | no binding (tested: 300 nM CCR8-NT.MBP) |  |  |  |  |  |  |  |  |  |  |  |  |  |  |  |  | 
2 | 1-K17 chimera (human IgG1) (antibody, also called 1-K17.hG1 Chimera) heavy: not shown light: DVVMTQTPLSLPVSLGDQASISCRSSQSLVHSNGNTYLYWYLQKPGQSPKLLIYKVSNRFSGVPDRFSGSGSGTDFTLKISRVEAEDLGVYFCSQSTHVPYTFGGGTKLEIKRTVAAPSVFIFPPSDEQLKSGTASVVCLLNNFYPREAKVQWKVDNALQSGNSQESVTEQDSKDSTYSLSSTLTLSKADYEKHKVYACEVTHQGLSSPVTKSFNRGEC |  |  |  | 0.651 | 0.00618 | 0.268 | 28 | 102 | 12 | 0.000144 | 0.047 | 0.018 | 7.81e+06 | 0.036 | no binding | 0.071 | 11 | 14 | 0.124 | 
3 | 7-B16 (mouse hybridoma antibody) (antibody, mouse IgG1, kappa) heavy: EVQLVESGGGLVQPKGSLKLSCAASGFTFNTYAMNWVRQAPGKGLEWVARIRSKSNNYATYYADSVKDRFTISRDDSQSMLYLQMNNLKTEDTAMYYCVRGLLRYRFFDVWGAGTTVTVSSAKTTPPSVYPLAPGSAAQTNSMVTLGCLVKGYFPEPVTVTWNSGSLSSGVHTFPAVLESDLYTLSSSVTVPSSPRPSETVTCNVAHPASSTKVDKKIVPRDCGCKPCICTVPEVSSVFIFPPKPKDVLTITLTPKVTCVVVDISKDDPEVQFSWFVDDVEVHTAQTQPREEQFNSTFRSVSELPIMHQDWLNGKEFKCRVNSAAFPAPIEKTISKTKGRPKAPQVYTIPPPKEQMAKDKVSLTCMITDFFPEDITVEWQWNGQPAENYKNTQPIMNTNGSYFVYSKLNVQKSNWEAGNTFTCSVLHEGLHNHHTEKSLSHSPG light: DIVMTQAEPSVPVTPGESISISCRSSKSLLHSNGNTYLYWFLQRPGQSPQLLIYRMSNLASGVPDRFSGSGSGTAFTLRISRVEAEDVGVYYCMQHLEYPFTFGGGTKLEIKRADAAPTVSIFPPSSEQLTSGGASVVCFLNNFYPKDINVKWKIDGSERQNGVLNSWTDQDSKDSTYSMSSTLTLTKDEYERHNSYTCEATHKTSTSPIVKSFNRNEC |  |  |  |  |  |  |  |  |  |  |  |  |  |  |  |  |  |  |  | binding result [19]: no binding; binding result [20]: binds
4 | 7-B16 chimera (human IgG1) (antibody, also called 7-B16.hG1 Chimera; Wild type 7-B16) heavy: not shown light: DIVMTQAEPSVPVTPGESISISCRSSKSLLHSNGNTYLYWFLQRPGQSPQLLIYRMSNLASGVPDRFSGSGSGTAFTLRISRVEAEDVGVYYCMQHLEYPFTFGGGTKLEIKRTVAAPSVFIFPPSDEQLKSGTASVVCLLNNFYPREAKVQWKVDNALQSGNSQESVTEQDSKDSTYSLSSTLTLSKADYEKHKVYACEVTHQGLSSPVTKSFNRGEC |  |  |  | 1.04 | 0.00691 | 0.437 | 148 | 175 | 14 | 0.00134 | 0.655 | 0.22 | 6.08e+06 | 0.101 | no binding | 0.09 | 18 | 41 | 0.771 | Flow (fold over parent) [21]: 10 fold; ADCC (Fold Induction) [22]: 23.3 fold
5 | 7B16-H1.001 (CDR H1 swapped mutant of 7-B16) (antibody, V domains shown, also called CDR swapped variant H1) VH: EVQLVESGGGLVQPKGSLKLSCAASGFTFSGSAMHWVRQAPGKGLEWVARIRSKSNNYATYYADSVKDRFTISRDDSQSMLYLQMNNLKTEDTAMYYCVRGLLRYRFFDVWGAGTTVTVSS VL: DIVMTQAEPSVPVTPGESISISCRSSKSLLHSNGNTYLYWFLQRPGQSPQLLIYRMSNLASGVPDRFSGSGSGTAFTLRISRVEAEDVGVYYCMQHLEYPFTFGGGTKLEIKR |  | no binding |  |  |  |  |  |  |  |  |  |  |  |  |  |  |  |  |  | 
6 | 7B16-L1.001 (CDR L1 swapped mutant of 7-B16) (antibody, V domains shown, also called CDR swapped variant L1) VH: EVQLVESGGGLVQPKGSLKLSCAASGFTFNTYAMNWVRQAPGKGLEWVARIRSKSNNYATYYADSVKDRFTISRDDSQSMLYLQMNNLKTEDTAMYYCVRGLLRYRFFDVWGAGTTVTVSS VL: DIVMTQAEPSVPVTPGESISISCRSSQSLLHSNGYNYLDWFLQRPGQSPQLLIYRMSNLASGVPDRFSGSGSGTAFTLRISRVEAEDVGVYYCMQHLEYPFTFGGGTKLEIKR | 0.0039 | no binding | no binding (tested: 300 nM CCR8-NT.MBP) |  |  |  |  |  |  |  |  |  |  |  |  |  |  |  |  | 
